This note sets out measurements from article PMC4063126.

The test concerns the target DENV1 prM protein with H98A (dengue virus 1 (DENV1), FGA/NA d1d strain). Put plainly: co-IP.

Substance “DENV1 E protein with H244A (natural protein)” displayed a co-IP at pH 6.0 as percent of that at pH 7.0 of 33%.
